# Like-named read-outs stand apart in the source and are kept apart here.
# B1: human adenylosuccinate lyase (ASL), wild type, His-tag (enzyme)
# chain: MAAGGDHGSPDSYRSPLASRYASPEMCFVFSDRYKFRTWRQLWLWLAEAEQTLGLPITDEQIQEMKSNLENIDFKMAAEEEKRLRHDVMAHVHTFGHCCPKAAGIIHLGATSCYVGDNTDLIILRNALDLLLPKLARVISRLADFAKERASLPTLGFTHFQPAQLTTVGKRCCLWIQDLCMDLQNLKRVRDDLRFRGVKGTTGTQASFLQLFEGDDHKVEQLDKMVTEKAGFKRAFIITGQTYTRKVDIEVLSVLASLGASVHKICTDIRLLANLKEMEEPFEKQQIGSSAMPYKRNPMRSERCCSLARHLMTLVMDPLQTASVQWFERTLDDSANRRICLAEAFLTADTILNTLQNISEGLVVYPKVIERRIRQELPFMATENIIMAMVKAGGSRQDCHEKIRVLSQQAASVVKQEGGDNDLIERIQVDAYFSPIHSQLDHLLDPSSFTGRASQQVQRFLEEEVYPLLKPYESVMKVKAE
# B2: human adenylosuccinate lyase (ASL) R194C, His-tag (enzyme)
# chain: MAAGGDHGSPDSYRSPLASRYASPEMCFVFSDRYKFRTWRQLWLWLAEAEQTLGLPITDEQIQEMKSNLENIDFKMAAEEEKRLRHDVMAHVHTFGHCCPKAAGIIHLGATSCYVGDNTDLIILRNALDLLLPKLARVISRLADFAKERASLPTLGFTHFQPAQLTTVGKRCCLWIQDLCMDLQNLKRVRDDLCFRGVKGTTGTQASFLQLFEGDDHKVEQLDKMVTEKAGFKRAFIITGQTYTRKVDIEVLSVLASLGASVHKICTDIRLLANLKEMEEPFEKQQIGSSAMPYKRNPMRSERCCSLARHLMTLVMDPLQTASVQWFERTLDDSANRRICLAEAFLTADTILNTLQNISEGLVVYPKVIERRIRQELPFMATENIIMAMVKAGGSRQDCHEKIRVLSQQAASVVKQEGGDNDLIERIQVDAYFSPIHSQLDHLLDPSSFTGRASQQVQRFLEEEVYPLLKPYESVMKVKAE
# Columns and labels:
# AUC [1] = molecular target: the molecule itself; experiment: AUC
# AUC [2] = molecular target: the molecule itself; experiment: AUC; remark: listed apart in the source
# [3] = molecular target: B1; experiment: AUC
# [4] = molecular target: B2; experiment: AUC
# AUC [5] = molecular target: the molecule itself; experiment: AUC; remark: listed apart in the source
# [6] = molecular target: B1; experiment: AUC; remark: listed apart in the source
# [7] = molecular target: B2; experiment: AUC; remark: listed apart in the source
# [8] = molecular target: B1; experiment: in vitro subunit hybridisation with separation on Ni-NTA
# [9] = molecular target: B2; experiment: as above
binder,measurement,setting,value
B1,stoichiometry N,AUC [1],4
same,percent tetramer (M-Tet model),AUC [2],77%
"human adenylosuccinate lyase (ASL) L311V, His-tag (enzyme) MAAGGDHGSPDSYRSPLASRYASPEMCFVFSDRYKFRTWRQLWLWLAEAEQTLGLPITDEQIQEMKSNLENIDFKMAAEEEKRLRHDVMAHVHTFGHCCPKAAGIIHLGATSCYVGDNTDLIILRNALDLLLPKLARVISRLADFAKERASLPTLGFTHFQPAQLTTVGKRCCLWIQDLCMDLQNLKRVRDDLRFRGVKGTTGTQASFLQLFEGDDHKVEQLDKMVTEKAGFKRAFIITGQTYTRKVDIEVLSVLASLGASVHKICTDIRLLANLKEMEEPFEKQQIGSSAMPYKRNPMRSERCCSLARHVMTLVMDPLQTASVQWFERTLDDSANRRICLAEAFLTADTILNTLQNISEGLVVYPKVIERRIRQELPFMATENIIMAMVKAGGSRQDCHEKIRVLSQQAASVVKQEGGDNDLIERIQVDAYFSPIHSQLDHLLDPSSFTGRASQQVQRFLEEEVYPLLKPYESVMKVKAE",stoichiometry N,AUC [1],4
same,percent tetramer (M-Tet model),AUC [2],68%
"human adenylosuccinate lyase (ASL) R396C, His-tag (enzyme) MAAGGDHGSPDSYRSPLASRYASPEMCFVFSDRYKFRTWRQLWLWLAEAEQTLGLPITDEQIQEMKSNLENIDFKMAAEEEKRLRHDVMAHVHTFGHCCPKAAGIIHLGATSCYVGDNTDLIILRNALDLLLPKLARVISRLADFAKERASLPTLGFTHFQPAQLTTVGKRCCLWIQDLCMDLQNLKRVRDDLRFRGVKGTTGTQASFLQLFEGDDHKVEQLDKMVTEKAGFKRAFIITGQTYTRKVDIEVLSVLASLGASVHKICTDIRLLANLKEMEEPFEKQQIGSSAMPYKRNPMRSERCCSLARHLMTLVMDPLQTASVQWFERTLDDSANRRICLAEAFLTADTILNTLQNISEGLVVYPKVIERRIRQELPFMATENIIMAMVKAGGSCQDCHEKIRVLSQQAASVVKQEGGDNDLIERIQVDAYFSPIHSQLDHLLDPSSFTGRASQQVQRFLEEEVYPLLKPYESVMKVKAE",stoichiometry N,AUC [1],4
same,percent tetramer (M-Tet model),AUC [2],78%
"human adenylosuccinate lyase (ASL) R396H, His-tag (enzyme) MAAGGDHGSPDSYRSPLASRYASPEMCFVFSDRYKFRTWRQLWLWLAEAEQTLGLPITDEQIQEMKSNLENIDFKMAAEEEKRLRHDVMAHVHTFGHCCPKAAGIIHLGATSCYVGDNTDLIILRNALDLLLPKLARVISRLADFAKERASLPTLGFTHFQPAQLTTVGKRCCLWIQDLCMDLQNLKRVRDDLRFRGVKGTTGTQASFLQLFEGDDHKVEQLDKMVTEKAGFKRAFIITGQTYTRKVDIEVLSVLASLGASVHKICTDIRLLANLKEMEEPFEKQQIGSSAMPYKRNPMRSERCCSLARHLMTLVMDPLQTASVQWFERTLDDSANRRICLAEAFLTADTILNTLQNISEGLVVYPKVIERRIRQELPFMATENIIMAMVKAGGSHQDCHEKIRVLSQQAASVVKQEGGDNDLIERIQVDAYFSPIHSQLDHLLDPSSFTGRASQQVQRFLEEEVYPLLKPYESVMKVKAE",stoichiometry N,AUC [1],4
B2,stoichiometry N,AUC [1],4
same,percent tetramer (M-Tet model),AUC [2],73%
"human adenylosuccinate lyase (ASL) R396C, non-His-tag (enzyme) MAAGGDHGSPDSYRSPLASRYASPEMCFVFSDRYKFRTWRQLWLWLAEAEQTLGLPITDEQIQEMKSNLENIDFKMAAEEEKRLRHDVMAHVHTFGHCCPKAAGIIHLGATSCYVGDNTDLIILRNALDLLLPKLARVISRLADFAKERASLPTLGFTHFQPAQLTTVGKRCCLWIQDLCMDLQNLKRVRDDLRFRGVKGTTGTQASFLQLFEGDDHKVEQLDKMVTEKAGFKRAFIITGQTYTRKVDIEVLSVLASLGASVHKICTDIRLLANLKEMEEPFEKQQIGSSAMPYKRNPMRSERCCSLARHLMTLVMDPLQTASVQWFERTLDDSANRRICLAEAFLTADTILNTLQNISEGLVVYPKVIERRIRQELPFMATENIIMAMVKAGGSCQDCHEKIRVLSQQAASVVKQEGGDNDLIERIQVDAYFSPIHSQLDHLLDPSSFTGRASQQVQRFLEEEVYPLLKPYESVMKVKAE",stoichiometry N,[3],4
same,stoichiometry N,[4],4
same,stoichiometry N,AUC [5],4
same,"percent tetramer (M-Tet model), pool 2",[6],72%
same,"percent tetramer (M-Tet model), pool 3",[6],70%
same,"percent tetramer (M-Tet model), pool 2",[7],78%
same,"percent tetramer (M-Tet model), pool 3",[7],80%
same,"subunit ratio (Non-His-tag: His-tag) by SDS-PAGE, pool 2",[8],1.2 non-His-tag per His-tag subunit
same,"subunit ratio (Non-His-tag: His-tag) by SDS-PAGE, pool 3",[8],2.3 His-tag per non-His-tag subunit
same,"subunit ratio (Non-His-tag: His-tag) by SDS-PAGE, pool 2",[9],1.2 non-His-tag per His-tag subunit
same,"subunit ratio (Non-His-tag: His-tag) by SDS-PAGE, pool 3",[9],3.2 His-tag per non-His-tag subunit
